Test results taken from the Human Domainome abundance scans (Beltran et al. 2025).
± gives the uncertainty stated by the source.

B1: KAT8 regulatory NSL complex subunit 2, residues 28 to 91; numbered along this chain, Q9H9L4 (parent)
chain: CAFTHRPCSHPRLEGQEFCIKHILEDKNAPFKQCSYISTKNGKRCPNAAPKPEKKDGVSFCAEH

Variants of: B1
Test: abundance fitness (aPCA) (normalised: wild type 0, dead -1); higher = more abundant; growth selection in yeast, the domain comes from the species named
Conditions: Homo sapiens

Abundance fitness of substitutions, site by site:
C45: I -0.594 ± 0.086, H -0.581 ± 0.12, F -0.609 ± 0.096, G -0.427 ± 0.057, R -0.635 ± 0.059, M -0.438 ± 0.061, N -0.398 ± 0.084, V -0.465 ± 0.063, P -0.561 ± 0.078, Y -0.671 ± 0.1, E -0.193 ± 0.09, A -0.459 ± 0.093, S -0.378 ± 0.049, L -0.441 ± 0.046, W -0.79 ± 0.056
Q33: G -0.142 ± 0.063, T 0.017 ± 0.099, S -0.182 ± 0.061, K -0.05 ± 0.061, F -0.217 ± 0.14, C -0.255 ± 0.14, R -0.081 ± 0.053, Y -0.071 ± 0.1, V -0.03 ± 0.06, E -0.049 ± 0.088, N -0.11 ± 0.073, A 0.011 ± 0.061, I -0.124 ± 0.087, L 0.004 ± 0.055, P -0.036 ± 0.063, M -0.062 ± 0.056, D -0.238 ± 0.12
D26: N -0.081 ± 0.079, S -0.117 ± 0.058, T -0.069 ± 0.083, I -0.072 ± 0.14, M -0.195 ± 0.063, R -0.175 ± 0.046, K -0.177 ± 0.09, W -0.347 ± 0.067, V -0.16 ± 0.068, Y -0.223 ± 0.097, Q -0.18 ± 0.071
S35: Q -0.103 ± 0.098, A -0.04 ± 0.06, F -0.012 ± 0.069, N -0.117 ± 0.075, K -0.046 ± 0.069, I -0.177 ± 0.095, H -0.333 ± 0.21, E -0.014 ± 0.064, D -0.057 ± 0.12, R -0.105 ± 0.065, L -0.14 ± 0.048, G -0.047 ± 0.052, T -0.104 ± 0.058, V -0.031 ± 0.053, P -0.177 ± 0.074, C 0.003 ± 0.11, Y -0.113 ± 0.1, W -0.169 ± 0.1
Y36: Q -0.078 ± 0.11, L -0.156 ± 0.05, A -0.096 ± 0.056, M -0.216 ± 0.069, W -0.122 ± 0.069, E -0.183 ± 0.093, D -0.162 ± 0.084, S -0.06 ± 0.056, C -0.173 ± 0.093, F -0.015 ± 0.08, N -0.157 ± 0.13, G -0.085 ± 0.049, P -0.298 ± 0.087, V -0.129 ± 0.045, H -0.016 ± 0.089, K -0.015 ± 0.069, T -0.054 ± 0.066, R -0.055 ± 0.058, I -0.131 ± 0.092
K27: W -0.215 ± 0.085, V -0.104 ± 0.062, H -0.094 ± 0.11, L -0.158 ± 0.041, E -0.079 ± 0.074, G -0.191 ± 0.068, Q -0.149 ± 0.095, R -0.12 ± 0.057, S -0.093 ± 0.049, Y -0.202 ± 0.067, M -0.269 ± 0.074, N -0.044 ± 0.097, A -0.019 ± 0.089, P -0.091 ± 0.058, F -0.3 ± 0.079, I -0.091 ± 0.063, D -0.172 ± 0.097, C -0.194 ± 0.082
N28: E -0.07 ± 0.084, L -0.093 ± 0.051, S -0.006 ± 0.057, T -0.031 ± 0.068, W -0.312 ± 0.068, A -0.118 ± 0.1, F -0.083 ± 0.11, G -0.11 ± 0.064, D -0.252 ± 0.17, K -0.1 ± 0.088, P -0.215 ± 0.051, C -0.142 ± 0.13, R -0.049 ± 0.041, H -0.028 ± 0.13, Q -0.069 ± 0.076, V -0.121 ± 0.056, M -0.107 ± 0.079
C34: P -0.346 ± 0.12, T -0.71 ± 0.097, M -0.542 ± 0.089, A -0.446 ± 0.096, I -0.56 ± 0.16, Y -0.604 ± 0.093, G -0.339 ± 0.063, E -0.185 ± 0.073, N -0.33 ± 0.08, Q -0.41 ± 0.12, R -0.578 ± 0.071, V -0.541 ± 0.066, H -0.453 ± 0.092, F -0.664 ± 0.17, K -0.484 ± 0.1, S -0.321 ± 0.058, W -0.674 ± 0.065
T39: S -0.112 ± 0.052, C -0.205 ± 0.073, P -0.207 ± 0.083, R -0.105 ± 0.14, V -0.097 ± 0.082, A -0.13 ± 0.07, E 0.003 ± 0.33, W -0.57 ± 0.15, M -0.165 ± 0.083, D -0.101 ± 0.075, K -0.087 ± 0.13, H -0.091 ± 0.067, F -0.105 ± 0.075, I -0.123 ± 0.066, N -0.049 ± 0.061, Y -0.237 ± 0.16, L -0.209 ± 0.072
P46: C -0.065 ± 0.056, E -0.031 ± 0.094, K 0.025 ± 0.1, H -0.165 ± 0.083, G -0.022 ± 0.037, A -0.119 ± 0.072, F -0.148 ± 0.072, D -0.155 ± 0.075, I -0.073 ± 0.061
N41: P -0.13 ± 0.073, K 0.019 ± 0.11, T -0.195 ± 0.075, W -0.171 ± 0.07, H -0.115 ± 0.097, M -0.079 ± 0.1, A -0.058 ± 0.053, Q -0.098 ± 0.071, E -0.005 ± 0.07, S -0.052 ± 0.054, R -0.06 ± 0.048, G -0.03 ± 0.053, Y -0.365 ± 0.13, F -0.086 ± 0.099, C -0.161 ± 0.09, V -0.031 ± 0.05, L -0.09 ± 0.06
S38: T -0.104 ± 0.064, K -0.084 ± 0.11, R -0.06 ± 0.049, N -0.122 ± 0.062, C -0.026 ± 0.076, P -0.028 ± 0.067, H -0.111 ± 0.085, F -0.038 ± 0.075, A -0.002 ± 0.058, Q -0.08 ± 0.08, I -0.348 ± 0.15, Y -0.065 ± 0.1, V -0.024 ± 0.051, W -0.076 ± 0.05, G -0.048 ± 0.058, E -0.059 ± 0.081, M -0.159 ± 0.1, L -0.076 ± 0.05
R44: W -0.112 ± 0.052, M -0.04 ± 0.059, F -0.144 ± 0.089, E -0.139 ± 0.092, Q 0.005 ± 0.065, P -0.067 ± 0.058, G -0.027 ± 0.059, H -0.051 ± 0.12, S -0.038 ± 0.05, N -0.014 ± 0.13, K -0.071 ± 0.06, D -0.102 ± 0.091, T -0.029 ± 0.077, C -0.026 ± 0.071
A29: E -0.308 ± 0.083, T -0.133 ± 0.084, V -0.196 ± 0.047, R -0.167 ± 0.037, P -0.225 ± 0.058, W -0.422 ± 0.068, I -0.358 ± 0.1, L -0.217 ± 0.065, Q -0.278 ± 0.14, G -0.128 ± 0.048, M -0.204 ± 0.074, C -0.151 ± 0.083, Y -0.287 ± 0.1, D -0.225 ± 0.1, H -0.208 ± 0.11, K -0.186 ± 0.079, S -0.048 ± 0.072, N -0.22 ± 0.15
P30: S -0.136 ± 0.052, L -0.188 ± 0.046, N -0.178 ± 0.11, V -0.256 ± 0.068, C -0.275 ± 0.065, H -0.253 ± 0.093, F -0.368 ± 0.067, D -0.155 ± 0.075, A -0.205 ± 0.06, Q -0.279 ± 0.1, W -0.514 ± 0.087, M -0.261 ± 0.084, E -0.251 ± 0.093, T -0.184 ± 0.066, Y -0.335 ± 0.076, I -0.162 ± 0.13, K -0.156 ± 0.1, G -0.074 ± 0.054, R -0.198 ± 0.046
K43: Q -0.057 ± 0.13, A -0.117 ± 0.056, N 0.027 ± 0.095, P -0.072 ± 0.056, T -0.028 ± 0.051, W -0.141 ± 0.074, V -0.074 ± 0.049, R -0.055 ± 0.034, Y -0.052 ± 0.072, I -0.181 ± 0.088, D -0.04 ± 0.12, G -0.144 ± 0.066, E -0.044 ± 0.078, S -0.042 ± 0.048, C -0.141 ± 0.08, M -0.203 ± 0.092, L -0.101 ± 0.052, H -0.063 ± 0.064, F -0.172 ± 0.076
K40: L 0.184 ± 0.32, G -0.196 ± 0.29, S -0.299 ± 0.43, D -0.14 ± 0.17, W -0.401 ± 0.38, Y -0.052 ± 0.19, F -0.037 ± 0.23
K32: R -0.041 ± 0.063, F -0.305 ± 0.11, T -0.177 ± 0.069, H -0.185 ± 0.085, Y -0.194 ± 0.083, N -0.073 ± 0.091, S -0.093 ± 0.054, D -0.136 ± 0.11, P -0.211 ± 0.073, A -0.075 ± 0.061, I -0.135 ± 0.085, E -0.026 ± 0.083, C -0.146 ± 0.098
I37: A -0.177 ± 0.062, C -0.032 ± 0.12, M 0.046 ± 0.092, G -0.022 ± 0.04, N -0.042 ± 0.13, Q -0.031 ± 0.12, H 0.039 ± 0.15, E -0.042 ± 0.095, T 0.038 ± 0.069, L -0.044 ± 0.047, P -0.142 ± 0.079, K -0.107 ± 0.1, D -0.302 ± 0.15, S -0.061 ± 0.062, Y -0.137 ± 0.098, R -0.045 ± 0.045, W -0.127 ± 0.052
F31: L -0.188 ± 0.052, M -0.175 ± 0.057, T -0.21 ± 0.063, H -0.261 ± 0.12, S -0.179 ± 0.058, G -0.1 ± 0.062, R -0.203 ± 0.059, V -0.248 ± 0.048, N -0.323 ± 0.094, I -0.391 ± 0.13, A -0.197 ± 0.046, Y -0.195 ± 0.15, P -0.183 ± 0.072, W -0.116 ± 0.088, K -0.195 ± 0.068
G42: Y -0.094 ± 0.072, Q -0.008 ± 0.15, P -0.1 ± 0.07, D -0.092 ± 0.075, V -0.108 ± 0.054, M -0.139 ± 0.087, L -0.125 ± 0.052, S -0.063 ± 0.046, C -0.105 ± 0.066, E -0.005 ± 0.075, I -0.206 ± 0.097, K 0.051 ± 0.078, A -0.053 ± 0.06, F -0.22 ± 0.097, H -0.141 ± 0.092, T -0.055 ± 0.073, W -0.246 ± 0.083, N -0.117 ± 0.087, R -0.038 ± 0.048
